Reference: paper PMC5147791 (PLoS Neglected Tropical Diseases, 2016)
One block for each molecule: values may come before it.

What was measured:
[1] = target: SmMTAP Q289L mutant (Schistosoma mansoni); experiment: crystal structure
[2] = target: SmMTAP S12T/N87T double mutant (Schistosoma mansoni); experiment: crystal structure
[3] = target: Schistosoma mansoni 5'-deoxy-5'-methylthioadenosine phosphorylase, wild type (Schistosoma mansoni); experiment: crystal structure; hanging drop at 18°C, 100 mM Bis-tris or MES pH 6.1-6.7, 14-18% PEG 3350, protein 6 mg/mL; apo or with adenine, MTA, tubercidin, sulphate; one or two trimers in the asymmetric unit
[4] = target: SmMTAP S12T mutant (Schistosoma mansoni); experiment: crystal structure
[5] = target: SmMTAP N87T mutant (Schistosoma mansoni); experiment: crystal structure
SmMTAP = target: T1, SmMTAP (Schistosoma mansoni, UniProt I0B503); experiment: X-ray crystal structure; type: binding
T1 construct: trimer; adult worm cDNA, corrected 3' end versus gene model Smp_028190
T1 sequence (I0B503 1-299): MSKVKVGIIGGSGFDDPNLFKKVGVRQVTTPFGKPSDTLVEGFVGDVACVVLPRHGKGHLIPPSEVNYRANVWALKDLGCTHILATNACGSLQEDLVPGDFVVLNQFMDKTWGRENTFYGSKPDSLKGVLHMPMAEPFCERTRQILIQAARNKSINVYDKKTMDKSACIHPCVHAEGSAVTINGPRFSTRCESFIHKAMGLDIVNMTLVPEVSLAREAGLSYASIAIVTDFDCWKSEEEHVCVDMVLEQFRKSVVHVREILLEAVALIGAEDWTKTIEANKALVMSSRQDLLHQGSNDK

purified protein = substrate: O=P(O)(O)O; experiment: purified protein; details: 100 mM Hepes pH 7.4, room temperature, nucleoside co-substrate not stated
[6] = substrate: Nc1ncnc2c1ncn2[C@H]1C[C@H](O)[C@@H](CO)O1; experiment: xanthine oxidase coupled assay, A305; type: biochemical, Schistosoma mansoni; details: 100 mM potassium phosphate pH 7.4, room temperature
Description: (§1) xanthine oxidase coupled assay, A305 on SmMTAP

[7] = substrate: Nc1ncnc2c1ncn2[C@@H]1O[C@H](CO)[C@@H](O)[C@H]1O; experiment: xanthine oxidase coupled assay, A305; type: biochemical, Schistosoma mansoni; details: 100 mM potassium phosphate pH 7.4, room temperature
Description: as §1

[8] = substrate: CSC[C@H]1O[C@@H](n2cnc3c(N)ncnc32)[C@H](O)[C@@H]1O; experiment: xanthine oxidase coupled assay, A305; type: biochemical, Schistosoma mansoni; details: 100 mM potassium phosphate pH 7.4, room temperature
Description: as §1

Molecule: SmMTAP Q289L mutant (enzyme)
stoichiometry N [1]: 3

Molecule: SmMTAP S12T/N87T double mutant (enzyme)
stoichiometry N [2]: 3

stoichiometry N [3]: 3
Molecule: Schistosoma mansoni 5'-deoxy-5'-methylthioadenosine phosphorylase, wild type (enzyme)

Molecule: SmMTAP S12T mutant (enzyme)
stoichiometry N [4]: 3

Molecule: SmMTAP N87T mutant (enzyme)
stoichiometry N [5]: 3

Molecule: Nc1ncnc2c1ccn2[C@@H]1O[C@H](CO)[C@@H](O)[C@H]1O [tubercidin]
X-ray crystal structure (SmMTAP; active site, crystals grown with 5 mM ligand): In the MTAP tubercidin complex, all of the active sites are occupied

Molecule: Nc1ncnc2[nH]cnc12 [adenine]
X-ray crystal structure (SmMTAP; base binding site, grown at pH 6.1-6.7, PEG 3350): the only WT structure whose BBS are all occupied is the orthorhombic SmMTAP adenine complex

B1: SmMTAP (Schistosoma mansoni) (protein)
chain: MSKVKVGIIGGSGFDDPNLFKKVGVRQVTTPFGKPSDTLVEGFVGDVACVVLPRHGKGHLIPPSEVNYRANVWALKDLGCTHILATNACGSLQEDLVPGDFVVLNQFMDKTWGRENTFYGSKPDSLKGVLHMPMAEPFCERTRQILIQAARNKSINVYDKKTMDKSACIHPCVHAEGSAVTINGPRFSTRCESFIHKAMGLDIVNMTLVPEVSLAREAGLSYASIAIVTDFDCWKSEEEHVCVDMVLEQFRKSVVHVREILLEAVALIGAEDWTKTIEANKALVMSSRQDLLHQGSNDK
notes: trimer; adult worm cDNA, corrected 3' end versus gene model Smp_028190
Km (purified protein): 65.58 ± 4.69 µM | Vmax (purified protein): 0.0358 µM/min | kcat (purified protein): 478 s⁻¹ | kcat/Km (purified protein): 7.28e+06 M⁻¹ s⁻¹ | Km [6]: 3.97 ± 0.41 µM | Vmax [6]: 0.0841 µM/min | kcat [6]: 224 ± 11.3 s⁻¹ | kcat/Km [6]: 5.65e+07 ± 6.49e+06 M⁻¹ s⁻¹ | Km [7]: 3.14 ± 0.16 µM | Vmax [7]: 0.0501 µM/min | kcat [7]: 334 ± 6.84 s⁻¹ | kcat/Km [7]: 1.06e+08 ± 5.84e+06 M⁻¹ s⁻¹ | Km [8]: 3.63 ± 0.14 µM | Vmax [8]: 0.0666 µM/min | kcat [8]: 444 ± 5.72 s⁻¹ | kcat/Km [8]: 1.22e+08 ± 4.97e+06 M⁻¹ s⁻¹
